System: 340R WT (MBP fusion) (Invertebrate iridescent virus 6 (IIV-6))
Assay: EMSA
Settings: EMSA 1 h at room temperature, 5 ng long dsRNA or 1 nM siRNA/19-nt dsRNA; 6% or 12% native PAGE; binding buffer not given (as ref 11); protein dialysis/storage …

Substance	Kd [nM]
126-nt long dsRNA	139
21-nt siRNA duplex	718
19-nt blunt dsRNA	1170
